Some targets named below: CXCL4; CXCL6; CXCL13; CXCL10_HUMAN (human, UniProt P02778 22-98); CXCL8_HUMAN (human, UniProt P10145 28-99); CCL7_HUMAN (human, UniProt P80098 24-99); CCL2_HUMAN (human, UniProt P13500 24-99).
Holding throughout (experiment): BLI
A general note: Biolayer interferometry detects binding as a change in optical thickness at a sensor tip.

Experiment [1] has as its target CXCL5.
The target of experiment [2] is CXCL2.
The target in a further experiment is T1, CXCL11_HUMAN (human, UniProt O14625 22-94).
T1 chain: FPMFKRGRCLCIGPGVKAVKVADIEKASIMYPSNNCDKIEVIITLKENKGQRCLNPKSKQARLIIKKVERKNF

Experiment [3] addresses T2, CXCL1_HUMAN (human, UniProt P09341 35-107).
In experiment [4] the target is T3, CXCL3_HUMAN (human, UniProt P19876 35-107).
T3 sequence (P19876 35-107): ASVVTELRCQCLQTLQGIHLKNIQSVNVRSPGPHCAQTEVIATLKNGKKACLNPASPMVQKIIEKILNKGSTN
The target in experiment [5] is T4, CCL13_HUMAN (human, UniProt Q99616 24-98).
T4 sequence (Q99616 24-98): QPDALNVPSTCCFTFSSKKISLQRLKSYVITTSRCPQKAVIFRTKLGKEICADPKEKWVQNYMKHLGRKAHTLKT
The target in experiment [6] is T5, CCL14_HUMAN (human, UniProt Q16627 22-93).
T5 chain: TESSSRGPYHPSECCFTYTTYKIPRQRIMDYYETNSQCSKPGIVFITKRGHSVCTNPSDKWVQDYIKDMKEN

The target in experiment [7] is T6, CCL11_HUMAN (human, UniProt P51671 24-97).
T6 sequence (P51671 24-97): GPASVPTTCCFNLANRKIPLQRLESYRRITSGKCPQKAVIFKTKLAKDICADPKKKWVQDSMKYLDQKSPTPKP
The target in experiment [8] is T7, CCL8_HUMAN (human, UniProt P80075 24-99).
T7 chain: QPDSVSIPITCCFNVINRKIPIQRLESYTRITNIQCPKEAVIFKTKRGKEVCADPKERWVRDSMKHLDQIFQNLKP

Experiment [9] addresses T2, CXCL1_HUMAN. The source holds these as a separate data set.
Experiment [10] has as its target T3, CXCL3_HUMAN. This is another data set of the same source.
The target of another experiment is T8, CCL18_HUMAN (human, UniProt P55774 21-89).
T8 chain: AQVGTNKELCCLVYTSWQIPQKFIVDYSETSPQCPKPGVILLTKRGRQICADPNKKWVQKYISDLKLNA

In the next experiment the target is T9, CCL5_HUMAN (human, UniProt P13501 24-91).
T9 chain: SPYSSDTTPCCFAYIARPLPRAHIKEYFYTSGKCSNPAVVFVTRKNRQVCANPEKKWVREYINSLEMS

In the next experiment the target is T10, CCL3_HUMAN (human, UniProt P10147 24-92).
T10 chain: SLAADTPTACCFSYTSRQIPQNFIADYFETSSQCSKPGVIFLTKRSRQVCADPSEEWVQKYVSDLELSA

A further experiment concerns the target T11, CCL3L1_HUMAN (human, UniProt P16619 24-93).
T11 chain: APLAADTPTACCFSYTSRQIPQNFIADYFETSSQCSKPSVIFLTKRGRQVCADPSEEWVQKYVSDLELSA

For the next experiment, the target named is T12, CCL4_HUMAN (human, UniProt P13236 24-92).
T12 chain: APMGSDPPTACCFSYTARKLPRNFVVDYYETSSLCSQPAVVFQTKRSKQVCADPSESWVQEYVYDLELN

The next experiment has as its target T13, CCL17_HUMAN (human, UniProt Q92583 24-94).
T13 chain: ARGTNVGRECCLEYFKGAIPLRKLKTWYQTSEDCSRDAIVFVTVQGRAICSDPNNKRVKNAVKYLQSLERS

Another experiment deals with T14, CCL1_HUMAN (human, UniProt P22362 24-96).
T14 chain: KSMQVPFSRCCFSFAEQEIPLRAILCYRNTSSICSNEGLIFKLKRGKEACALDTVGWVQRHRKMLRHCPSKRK

Experiment [11] deals with T4, CCL13_HUMAN. This is another data set of the same source.
The next experiment addresses T15, CCL16_HUMAN (human, UniProt O15467 24-120).
T15 chain: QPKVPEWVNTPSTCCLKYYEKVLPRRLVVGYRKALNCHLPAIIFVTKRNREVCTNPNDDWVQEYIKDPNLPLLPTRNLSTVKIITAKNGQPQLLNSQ

A further experiment deals with T16, CCL4L1_HUMAN (human, UniProt Q8NHW4 24-92).
T16 chain: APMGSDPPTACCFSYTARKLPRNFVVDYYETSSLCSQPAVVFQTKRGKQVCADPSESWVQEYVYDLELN

The target in experiment [12] is T5, CCL14_HUMAN.
Another experiment deals with T17, CCL23_HUMAN (human, UniProt P55773 22-120).
T17 chain: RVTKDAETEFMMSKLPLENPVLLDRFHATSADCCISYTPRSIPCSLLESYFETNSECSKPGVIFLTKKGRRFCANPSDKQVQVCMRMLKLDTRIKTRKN

The target of experiment [13] is T6, CCL11_HUMAN. The source holds these as a separate data set.
The next experiment addresses T18, CCL15_HUMAN (human, UniProt Q16663 22-113).
T18 chain: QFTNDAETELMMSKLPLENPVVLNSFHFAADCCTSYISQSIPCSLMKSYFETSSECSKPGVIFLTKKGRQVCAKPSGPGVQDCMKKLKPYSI

In the next experiment the target is T19, CCL22_HUMAN (human, UniProt O00626 25-93).
T19 chain: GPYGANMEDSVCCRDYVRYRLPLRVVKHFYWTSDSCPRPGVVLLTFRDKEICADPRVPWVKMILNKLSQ

The target in the next experiment is T20, CCL24_HUMAN (human, UniProt O00175 27-104).
T20 chain: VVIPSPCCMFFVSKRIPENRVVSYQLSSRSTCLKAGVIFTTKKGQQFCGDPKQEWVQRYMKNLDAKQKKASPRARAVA

The next experiment addresses T21, CCL27_HUMAN (human, UniProt Q9Y4X3 25-112).
T21 chain: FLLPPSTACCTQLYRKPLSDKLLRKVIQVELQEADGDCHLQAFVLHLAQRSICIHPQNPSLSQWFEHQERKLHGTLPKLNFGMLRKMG

Experiment [14] concerns the target T7, CCL8_HUMAN.
For the next experiment, the target named is T22, CCL21_HUMAN (human, UniProt O00585 24-134).
T22 chain: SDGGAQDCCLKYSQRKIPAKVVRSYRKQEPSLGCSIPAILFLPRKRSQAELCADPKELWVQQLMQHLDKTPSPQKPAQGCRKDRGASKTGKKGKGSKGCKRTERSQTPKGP

Experiment [15] has as its target CXCL5. The source holds these as a separate data set.
In experiment [16] the target is CXCL2. This is another data set of the same source.

The source of these data is patent publication US20200247855A1 (published 2020).

Like-named read-outs stand apart in the source and are kept apart here.

T2 sequence (P09341 35-107): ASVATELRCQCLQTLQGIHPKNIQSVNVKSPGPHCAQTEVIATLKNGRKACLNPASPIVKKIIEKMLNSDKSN
CXCL10_HUMAN, sequence (P02778 22-98): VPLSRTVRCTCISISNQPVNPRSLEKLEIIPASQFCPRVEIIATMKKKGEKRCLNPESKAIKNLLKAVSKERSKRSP
CCL2_HUMAN, sequence (P13500 24-99): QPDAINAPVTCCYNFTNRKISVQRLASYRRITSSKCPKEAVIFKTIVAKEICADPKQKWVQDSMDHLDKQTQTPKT
CXCL8_HUMAN, sequence (P10145 28-99): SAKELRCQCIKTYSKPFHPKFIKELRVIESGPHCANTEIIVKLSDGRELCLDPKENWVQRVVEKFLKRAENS
CCL7_HUMAN, sequence (P80098 24-99): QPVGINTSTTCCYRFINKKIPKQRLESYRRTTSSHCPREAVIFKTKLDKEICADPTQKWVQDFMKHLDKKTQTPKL

B1: P675_IXORI (other)
chain: GSNQLSGPQSSANSNDAVFCDTNCTQGTDGAWSGCRGDCFCVHVGNSTEGRCIELIGDFDYSTPGAED
As for B1, the Kd in the experiment with CXCL4 stood at 422 nM; with CXCL6, 7.68 nM; with CXCL5 [1] it was 34.2 nM; with CXCL2 [2], 24.8 nM; in the experiment with CXCL13, 582 nM; with CXCL11_HUMAN it was 7.73 nM. Further, the Kd with CXCL10_HUMAN was found to be 3120 nM; with CXCL1_HUMAN [3], 9.99 nM; with CXCL3_HUMAN [4], 35.7 nM.

B2: P1243_AMBAM (other)
chain: RNHTEDNSTEYYDYEEARCACPARHLNNTNGTVLKLLGCHYFCNGTLCTAPDGYPCYNLTAQQVRTLTTYPNTSCAVGVCMKGTCVKNGTMEQCFKTP
As to B2, the Kd with CCL13_HUMAN [5] came to 1.64 nM; with CCL14_HUMAN [6], 6.43 nM; with CCL11_HUMAN [7], 36.8 nM; in the experiment with CCL8_HUMAN [8] it was 193 nM.

B3: P1156:G4S:P991 (designed binder)
chain: ADDDNELFTVQYCGMNCTKDEGGTWTGCTGKKEGCKCYHESGKNYGLCLSTEYTDFSQYGNPSDSEIEAAKPKRSDTLSHGGGGSENGEGTTQPDYDNSTDYYNYEDFKCTCPAPHLNNTNGTVMKPIGCYYTCNVTRCTAPDTYPCYNLTEHQAKNLTTSPTTLCAVGNCDHGICVPNGTKELCFKAPNLEE
In the case of B3, the Kd was determined as 2.72 nM in the experiment with CXCL1_HUMAN [9]; 1.5 nM in the experiment with CXCL8_HUMAN; 61.4 nM with CXCL3_HUMAN [10]; 0.201 nM in the experiment with CCL18_HUMAN; 0.754 nM with CCL5_HUMAN; 1.89 nM in the experiment with CCL3_HUMAN. In addition, the Kd with CCL3L1_HUMAN worked out at 3.09 nM; with CCL4_HUMAN, 3.55 nM; with CCL17_HUMAN, 7.44 nM; with CCL1_HUMAN, 16.6 nM; with CCL13_HUMAN [11], 0.207 nM; in the experiment with CCL16_HUMAN, 0.503 nM. The Kd worked out at 1.28 nM with CCL4L1_HUMAN; 0.435 nM with CCL7_HUMAN; 0.664 nM in the experiment with CCL14_HUMAN [12]; 32.1 nM with CCL2_HUMAN; 7 nM with CCL23_HUMAN; 1.54 nM with CCL11_HUMAN [13]. The Kd is 166 nM with CCL15_HUMAN; 2.18 nM with CCL22_HUMAN; 3.58 nM with CCL24_HUMAN; 36.2 nM with CCL27_HUMAN; 7.45 nM in the experiment with CCL8_HUMAN [14]; 19.9 nM in the experiment with CCL21_HUMAN. The Kd in the experiment with CXCL5 [15] was 22.7 nM; with CXCL2 [16], 25.2 nM.

B4: P1080_IXORI (other)
chain: SAGSKGSSAPQSSGDSVVAEFCDTNCTMKKDGKWTECNGDCFCVHVGNETVGRCMRLDGDYDYTSSKTTRRNKKTRNGLCRLDRNRTTVDYPERNTREP
As for B4, the Kd in the experiment with CXCL4 was found to be 2310 nM; in the experiment with CXCL6, 11 nM; with CXCL5 [1] it was 56.6 nM; with CXCL2 [2], 392 nM; with CXCL13, 1110 nM; with CXCL11_HUMAN, 73.3 nM. The results for the Kd with CXCL10_HUMAN, with CXCL1_HUMAN [3] and with CXCL3_HUMAN [4] were 1260 nM, 55.1 nM and 124 nM, respectively.

In general, Kd refers to the concentration at which binding is half-saturated. Low readings indicate tighter binding, high ones weaker binding.
